Results from publication PMC3849214.

Tested on: c1ccc([C@H]2CO2)cc1
Experiment: colorimetric periodate-coupled diol assay, A290, steady state
Format: biochemical, Streptomyces globisporus
Settings: pH 8.0, 50 mM sodium phosphate, 25 °C, 3 mM sodium periodate

SgcF (Streptomyces globisporus; Q237M)
Km: 4.1 ± 0.8 mM | kcat/Km: 780 M⁻¹ s⁻¹
